These results are taken from paper PMC12477886.

Experiment in all cases: BLI
(BLI is a label-free optical method that tracks binding on a fibre tip over time.)

Experiment [1] addresses M15 single reverted mutant T57I (light chain I57 reverted to germline T) (human).
The target of experiment [2] is M15 single reverted mutant G51A (light chain A51 reverted to germline G) (human).
In experiment [3] the target is M15 single reverted mutant S32I (light chain I32 reverted to germline S) (human).
In experiment [4] the target is M15 triple mutant (light chain S32I, G51A and T57I all reverted to germline) (human).

Turning to “SARS-CoV-2 WA1/2020 S2 protein (stabilized prefusion spike S2 trimer) (from UniProt P0DTC2) (domain or fragment)”, the fold decrease in binding affinity compared with M15 in experiment [1] stood at 1.02 fold; in experiment [2] it was 1.88 fold; in experiment [3], 1.45 fold; in experiment [4] it was 12 fold.
